Publication PMC13399123, “Interaction of HS1BP3 with cortactin modulates TKS5 localisation, cell secretion and cancer malignancy” (Molecular Oncology, 2026)

Target: T1, full-length MBP-HS1BP3 (UniProt Q53T59 1-392)
T1 construct: HS1BP3, full length; also called HS1BP3 FL; MBP HS1BP3 full-length WT; source: SoluBL21 E. coli, purified (amylose resin, eluted with 10 mM maltose)
T1 sequence (looked up): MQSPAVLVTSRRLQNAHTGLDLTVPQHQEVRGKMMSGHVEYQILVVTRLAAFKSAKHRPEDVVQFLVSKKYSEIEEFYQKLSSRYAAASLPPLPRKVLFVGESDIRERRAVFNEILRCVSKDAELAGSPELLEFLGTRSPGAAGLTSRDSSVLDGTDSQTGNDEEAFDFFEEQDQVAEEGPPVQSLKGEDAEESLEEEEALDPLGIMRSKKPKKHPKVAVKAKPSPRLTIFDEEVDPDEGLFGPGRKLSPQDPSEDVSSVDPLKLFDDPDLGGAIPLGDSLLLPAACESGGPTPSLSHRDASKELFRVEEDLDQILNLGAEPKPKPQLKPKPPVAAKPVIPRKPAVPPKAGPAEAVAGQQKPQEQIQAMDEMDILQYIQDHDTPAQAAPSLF
Assay: pull-down; equal concentrations of GST-SH3 (on glutathione beads) and purified MBP-tagged HS1BP3 proteins incubated 2 h at 4 °C, six washes with GST-buffer, anti-MBP immunoblot
Conditions: both partners purified

B1: GST-SH3 (SH3 domain of cortactin fused to GST) (domain or fragment)
chain: not shown
notes: SH3 domain of cortactin (CTTN); Q14247 amino acids 492-550 are printed only for the SH3 fragment used in the AlphaFold model; Held on glutathione beads as bait; also called GST-SH3 (cortactin); source: SoluBL21 E. coli, purified on Glutathione Sepharose 4B beads
  binding result: binds
